Source: US20220227830A1, “QD DOSING OF GIP RECEPTOR AGONIST PEPTIDE COMPOUNDS AND USES THEREOF” (Takeda Pharmaceutical Company Limited, priority 2020, published 2022)
Starred links: 1 amine or outer side, 2 acyl side, 3 side chain; linkers in the order of their positions; H or OH if unused. Non-standard residues stand in square brackets, D forms with d. Groups on a side chain read outwards from the residue. No end group written: not given here. *: point of attachment. G2E3 = linker of 2 Gly and 3 Glu (read GGEEE); C15 diacid = O=C(O)CCCCCCCCCCCCCC(=O)*; γGlu = O=C(O)[C@H](CCC(=O)[*:2])N[*:1]; NMeY = CN[C@@H](Cc1ccc(O)cc1)C(=O)O; AEEA = NCCOCCOCC(=O)O; Aib = CC(C)(N)C(=O)O

T1: full-length human GIPR with an N-terminal FLAG tag (human, UniProt P48546 22-466)
T1 sequence (looked up): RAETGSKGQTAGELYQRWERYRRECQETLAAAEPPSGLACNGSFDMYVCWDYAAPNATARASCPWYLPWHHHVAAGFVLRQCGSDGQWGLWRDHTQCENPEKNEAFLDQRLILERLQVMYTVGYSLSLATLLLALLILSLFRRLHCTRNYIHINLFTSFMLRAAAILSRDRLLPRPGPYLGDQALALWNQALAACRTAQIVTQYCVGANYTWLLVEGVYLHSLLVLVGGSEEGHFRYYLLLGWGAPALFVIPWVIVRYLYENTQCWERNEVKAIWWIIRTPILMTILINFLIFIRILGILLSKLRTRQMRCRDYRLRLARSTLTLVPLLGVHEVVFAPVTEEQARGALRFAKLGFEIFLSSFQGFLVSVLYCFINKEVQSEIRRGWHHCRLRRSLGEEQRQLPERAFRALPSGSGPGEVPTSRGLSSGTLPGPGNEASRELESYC

T2: full-length human GIPR with an N-terminal FLAG tag, overexpressed on HEK-293T cells (human, UniProt P48546 22-466)
T2 sequence (looked up): T1 sequence (looked up)

B1: Compound 41 (peptide)
peptide: Y[Aib]EGTFISDYSIALDR[Aib]AQ[Aib]NFVNWLLAQK([G2E3-C15 diacid])
modifications: not fully specified (residue 1, N-terminus); also: Me-Tyr methyl position not given here
B2: Compound 191 (peptide)
peptide: YXEGTFTSDYSIYLDKQAAXEFVNWLLAGGPSSGAPPPSX
modifications: not fully specified; no N-terminal group printed; Aib at 2, 20; Km = Lys(R) at 40, linker not given, lipid C16; C-terminal NH2
B3: Compound 43 (peptide)
peptide: Y[Aib]EGTFISDYSIALDR[Aib]AQ[Aib]NFVNWLLAQK([AEEA-γGlu-γGlu-γGlu-C15 diacid])
modifications: not fully specified (residue 1, N-terminus); also: Me-Tyr methyl position not given here

Legend:
Test in all cases: cell-based or functional assay
[1] = biological target: T1, full-length human GIPR with an …
[2] = biological target: full-length human GLP-1R with an N-terminal FLAG tag (human, UniProt P43220 24-463)
[3] = biological target: T2, full-length human GIPR with an …

| Binder | Human GIPR cAMP, HEK293T EC50 [1] | Human GLP1R cAMP HEK293T EC50 [2] | Human GIPR cAMP, HEK293T EC50 [3] |
| --- | --- | --- | --- |
| [NMeY][Aib]EGTFISDYSIALDRK([AEEA-AEEA-γGlu-C15 diacid])HQ[Aib]NFVNWLLAQRPSSGAPPPS-OH (also: Me-Tyr methyl position not given here) [Compound 47] | 0.3 pM | 110000 pM | – |
| [NMeY][Aib]EGTFISDYSIALDR[Aib]K([AEEA-γGlu-γGlu-γGlu-C15 diacid])Q[Aib]NFVNWLLAQK (not fully specified (N-terminus)) [Compound 44] | 0.4 pM | 631000 pM | – |
| [NMeY][Aib]EGTFISDYSIALDR[Aib]AQ[Aib]K([AEEA-γGlu-γGlu-γGlu-C15 diacid])FVNWLLA[Aib]K-OH (not fully specified) [Compound 45] | 0.3 pM | 48400 pM | – |
| B1 | 0.4 pM | 112000 pM | – |
| [NMeY][Aib]EGTFISDYSIALDR[Aib]AQ[Aib]K([AEEA-γGlu-γGlu-γGlu-C15 diacid])FVNWLL[Aib]QK-OH (not fully specified) [Compound 40] | 0.8 pM | 115000 pM | – |
| B2 | – | – | 4.9 pM |
| B3 | 0.3 pM | 174000 pM | – |
| [NMeY][Aib]EGTFISDYSIALDR[Aib]K([G2E3-C15 diacid])Q[Aib]NFVNWLLAQK-OH (not fully specified (N-terminus)) [Compound 42] | 0.6 pM | 237000 pM | – |
| Me-Y[Aib]EGTFISDYSI[Aib]LDR[Aib]AQ[Aib]K([2OEG-γGlu-γGlu-C15 diacid])FVNWLLAQRG-OH [Compound 207] | – | – | 0.4 pM |
| [NMeY][Aib]EGTFTSDYSIYK([AEEA-AEEA-γGlu-C15 diacid])DR[Aib]AQ[Aib]NFVNWLLAQRPSSGAPPPS-OH (not fully specified) [Compound 46] | 0.2 pM | 144 pM | – |
| [NMeY][Aib]EGTFISDYSIAK([AEEA-γGlu-γGlu-γGlu-C15 diacid])DR[Aib]AQ[Aib]NFVNWLL[Aib]QK-OH (not fully specified) [Compound 38] | 0.2 pM | 525000 pM | – |
| [NMeY][Aib]EGTFISDYSIAK([AEEA-γGlu-γGlu-γGlu-C15 diacid])DR[Aib]AQ[Aib]NFVNWLLA[Aib]K-OH (not fully specified) [Compound 39] | 0.5 pM | 398000 pM | – |
| Me-Y[Aib]EGTFISDYSIALDR[Aib]AQ[Aib]KFVNWLLAQKG-OH (not fully specified (residues 1, 21)) [Compound 204] | – | – | 0.8 pM |
